According to the supplement of paper PMC12042874:
± gives the uncertainty stated by the source.

Assay: amyloid nucleation score (Sup35N fusion, yeast selection) (log enrichment); library NNK1; higher = more nucleation; inactive = no reads after selection
Summary of the method: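 The nucleation score equals the log enrichment of output over input reads from DiMSum, centred on the mode score of non-aggregating sequences. It was computed only for sequences with 100 or more input reads. The reads came from Illumina sequencing of plasmid inserts from psi-negative yeast expressing Sup35N fused to peptides of 20 random codons, induced with 100 μM copper sulfate for 24 hours and grown 7 days at 30°C without adenine and uracil.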

Substance | amyloid nucleation score
GEYRDGFSLRVMGLHGSLNH | 1.07 ± 0.58
PYLYRTLKKPLATHWSQFVK | -1.22 ± 0.9
PVLYNHCGVNLCPTLCLSNY | 7.199 ± 0.053
MGNTLITLIVGSGAL | 3.44 ± 0.18
SLILFV | 0.856 ± 0.45
YSLSPTKLGFSERLDSNEVV | 0.225 ± 0.62
NYLERHMQHPMRTHVFRGQL | 0.129 ± 0.72
LYIRSIACGSSLLFLAVLNC | -0.856 ± 1.1
ILVVAVI | -0.64 ± 0.39
TLTSRVENKFRMVIL | 3.46 ± 0.088
DEPAWCSIFAGDIMLKCC | 3.57 ± 0.077
DKLICLMLEAASICYKVQSG | -0.673 ± 0.57
CGNAWVKAIMW | -0.191 ± 0.66
RCCGLYVSLWIS | 0.425 ± 0.6
PNAVCGQWFEDQL | -0.269 ± 0.94
DLIMFD | -0.029 ± 0.73
AMYVDQVLHQPRPLMSPRMQ | 0.515 ± 0.51
NNYYA | -0.616 ± 0.52
MDTVFSFYVIIPVQFSCVAL | 3 ± 0.13
QRGMTIL | 0.109 ± 0.31
FQKYGQCSHYRVVDRKLQCS | 0.314 ± 1.4
SLIYGILCKINQ | -0.064 ± 0.44
VKMYRAFIQGYGSLDRRQFP | 0.45 ± 0.42
FNTALSDPYVTMWHYYTNYC | -0.8 ± 0.63
SCPGK | 0.001 ± 0.44

Substance | amyloid nucleation score
SIDVSDSSRDGYSDMWSKCK | -0.164 ± 0.24
FRWPSLLGNLLKLGVDTAD | -0.126 ± 0.38
SLAQFRWVV | 1.52 ± 0.13
LNWSNKWSFTNMRRFCAMF | 0.01 ± 0.26
PSRATYCRGSMIHLIFDWIT | 0.955 ± 0.54
NVMSSPCIRVGMLRMGVTKS | 1.62 ± 0.51
NRIISLCSLSCDYLNLDWCI | 7.13 ± 0.08
LTGRCPFVGLRLEGHLFLTG | -0.169 ± 0.81
TEELYTGVTFL | -1.93 ± 1.5
FLLGSYILWECNHGSHHMSG | 0.06 ± 0.23
WPRVGETSRVNLTTGIMS | -0.297 ± 0.29
GFCLVVLGYCFYMFYATNNS | 0.042 ± 0.9
KLLHLVIVDELCFVRYSGLA | 0.381 ± 0.81
AYSCDLVELRVCAVSVWEEW | 1.42 ± 0.41
DASTEITGLAPGFSTTVGRM | -0.536 ± 0.81
SWTTARLNRSRSIFKNLRQE | 0.028 ± 0.46
GVKTAYGNHAMWRDAVSRRG | 0.15 ± 0.57
LVVIVTPWKYSEP | 6.58 ± 0.086
EMSIILGIERRNHCVPAMVS | -0.552 ± 1.9
TMQFFHERGYLLKSRYAGAW | -0.273 ± 0.98
TLSTVTG | 0.357 ± 0.37
EITWCF | 0.485 ± 0.72
SDASHHHRYRESHDYCFFRK | 0.272 ± 0.4
YLDGVIWFLK | -0.591 ± 0.31
QINLSGVSVDEWLSLWYGVL | 0.468 ± 0.72

Substance | amyloid nucleation score
TDLFYMMCSRRQTYVCNLVR | 0.456 ± 0.43
RSYSNPLSSVSLSNYSFGVY | -0.353 ± 0.36
VPSLRYYLYGSFFVI | -2.49 ± 1.7
SVTVM | 1.74 ± 0.49
RYTEAASICRLVLGGQGVRI | -0.155 ± 0.96
CRACRLRVIFNELMVGWVMF | inactive
DNNYSCILAASYLYGLKNYL | -0.12 ± 0.51
IRTKILLLHKNQKTVVKGLG | 0.073 ± 1.5
LVMFSNLCSWFLLF | 0.966 ± 0.62
RSGSLCGFLREKKVRNTFWV | -0.376 ± 0.59
LMLVRLVCLHLDDETHIRQR | inactive
MIKYYYGSGTLS | -0.429 ± 0.34
GGYVLPYSLFFGVPSIAFVG | 0.602 ± 0.7
HLRRVMYLFAANCGPRPAND | -0.69 ± 0.96
WNEWRGHVTILGDLYSYRHT | 3.6 ± 0.16
FRHGKVWSLLKLGADAGREE | 0.098 ± 0.91
VVVYGCLYILVARRYDTIAW | 0.493 ± 0.84
FFSMSSVTNKFSTSCRLNHS | 3.18 ± 0.099
WMWGGGRWRRVPRRCMVVGR | -0.054 ± 0.4
SIFLKIPNREVLSSFRWTCF | -0.372 ± 0.22
TYRDKNNVRFKRFLGKRTAC | -1.22 ± 0.99
RGGWRTVQCSLNQGWLRRYL | 0.048 ± 0.42
PYVFPVRYYSTILWYAIYVR | 0.558 ± 0.28
SCPWLDSSLCFMNVGVLIYK | 3.37 ± 0.062
RGNVCCTMIC | 6.09 ± 0.074

Substance | amyloid nucleation score
TSTVG | inactive
VSHYGCFQTVCDLRVGGPPE | -1.4 ± 2.4
QDTVFYMTDWGCGATKARDD | 0.117 ± 0.94
LWYSFNVHTVHYYQCSDIYS | -0.142 ± 0.26
AVLSPGWWESLYPRRVVHSC | -0.354 ± 0.54
PSNLRDWHSSQFNREEEDAY | 0.467 ± 0.46
RVDHVGRGQSREGGPDAGRV | 0.217 ± 0.26
VEGLERLLVLWHWPFAWNYF | -0.735 ± 1.4
LHWFQLMANFI | -0.069 ± 0.28
NVTFHSRSGV | -0.316 ± 0.84
KLCWASTRMMWRFYFLDCLD | 0.146 ± 0.39
RYSGFLSVSLL | -0.087 ± 1
GIGAGYKFNDTVFSEGCSSG | 0.653 ± 0.93
IYCSCPSKQE | -0.075 ± 0.24
NARWSGISFQC | -0.115 ± 0.87
IDNTLIIDFLFLCNVRTFLR | -0.162 ± 0.24
YCNLIRFKFCVNSCCMSSSL | 5.64 ± 0.078
MLISSILTYIKVSGYCPGCT | 0.347 ± 0.52
GSPVCTRRRPASLPPLRQVH | 0.208 ± 0.45
PWVTLVRAMCMFINVDLVSR | 0.201 ± 0.72
WWSRTLSLLE | -0.035 ± 0.32
SKSFDRKMVC | -0.092 ± 0.33
TIYISVSNRSVDSKDMGYGS | inactive
IRRSIGVRAPWTFSEEDGSS | 0.6 ± 0.79
ICCISKILLFCISM | 6.53 ± 0.091

Substance | amyloid nucleation score
NDYYCFHRAIFFDTGMYFSN | -0.009 ± 0.41
TWGSGY | -0.797 ± 0.93
HLSMFDCVYSF | 1.26 ± 0.9
ATVKVPNNSIRNDFFSNDRD | -1.13 ± 1.2
FVKVLDFYLMLSCHTICLFG | -0.832 ± 1.5
SFCMMLVSLVFSSKKISHHA | 0.877 ± 0.49
SLFEFWSDNFNQEQ | 1.49 ± 0.76
YYKYKLLLIKLVLGGAGRPV | -0.054 ± 0.56
SHGVVYGFIMLVMEEYLRQQ | -0.376 ± 0.27
DGTVR | 1.62 ± 0.17
QYYFDLIDLGITVDVMS | 0.684 ± 0.84
YDTLMMNNLEMSTFVRMGLW | 0.503 ± 0.51
QTLGVGSRYVNVNSGLITQL | -0.05 ± 0.29
RANSYGGMSNVLW | 0.281 ± 0.28
SYRSVG | 0.25 ± 0.59
RLGLVVSVGRRRLLTAQLGK | 1.38 ± 0.72
PQVGRAYNGGAGFLKYSTWD | 0.229 ± 0.51
PGRSSRLR | -0.071 ± 1.1
RMVNKTECTRRRIITTSNWI | 0.869 ± 0.81
TDGQWMSYSFSAFASYVVLG | -0.179 ± 0.58
GWYEMASAHHMTDWYGW | -0.337 ± 0.51
RQNVQWR | 1.86 ± 0.62
RYDSRFALPLDLS | -0.245 ± 0.45
NYGAFY | -0.13 ± 0.63
LIVIPKGG | 1.58 ± 0.51

Substance | amyloid nucleation score
HYVYRGQLRGHACKGWSYFG | 0.531 ± 0.51
IVLKVIINVCHYLTGGSTFA | 6.475 ± 0.062
HVGRHTTTGHAGFCNCGNPN | 3.46 ± 0.17
CSYSLSRFVLIHDRIVNMVT | 1.35 ± 0.4
GGMLQLSSSDFTRWAQEWSI | 0.355 ± 0.73
MKFFRRFYREYF | -0.431 ± 1
KFFHLAIMWFTPSSPHKGTC | -0.496 ± 0.62
TVFDSLC | 0.372 ± 1.2
YVEKVSFTAIEWWRGQLQSV | 0.565 ± 0.47
YFFRKLSGSWASSFLVAPMV | 0.444 ± 0.59
DYGNTVNYSSGEDVHWL | -0.592 ± 1.7
VRCTFLVKVDWTFYKASRPR | 0.087 ± 0.47
FNFMVNRLMVKVGLVSWRQY | 0.029 ± 1.6
VRMIFVQCWKCTESNFCERN | -0.174 ± 0.66
TLLYPYMVPLRRKSLWGAVR | 1.36 ± 0.35
IHDAYVTESGYWVDV | 1.29 ± 0.66
EFGFVWVKLCNWGISLLQVN | inactive
NVGRHV | 0.151 ± 0.9
CQLNTASVSNNGGRVLGMYR | 0.529 ± 0.79
RPHSGVIDDL | 0.349 ± 0.51
LSGVLGSVAFAYIRPRTGFG | -0.143 ± 1.2
LFFECVTLHLYLVKSS | -1.1 ± 2.4
IVASYRYNYMYDLHLLSALQ | inactive
LCDFVLNIEREVNVYSFIKL | 2.34 ± 0.13
QMTCSD | 1.6 ± 0.8

Substance | amyloid nucleation score
SCQATLLFLSYSSNVGLIST | -0.267 ± 1.1
MKAGFHYYLVMLVRKE | 0.265 ± 0.31
MRYMCVRY | 0.676 ± 0.46
YMYQIG | -0.691 ± 1.7
KTGFYGFMVGM | 4.54 ± 0.063
QNPFSTSHIVRSLLCLNDVI | inactive
SSSKGSMENYISYRSL | -0.703 ± 0.32
MLNINVTYGFGDLREWNRIF | 1.16 ± 0.13
VVLTYSWGAYRY | 1.26 ± 0.23
ADKTGGPVTNITFLAWPWWG | 3.95 ± 0.13
GWLTYSPRSALIDHERRSLQ | 0.879 ± 0.15
SILCESFVGCLDAMRDRVYY | -0.036 ± 0.61
GISFWSLGC | 1.07 ± 0.84
DARLFDFYFANLVSSQGNCF | 1.09 ± 0.56
RRSPGYMDLCWNGWFGRAVR | 0.207 ± 0.5
IIRFWLTSVVIYMSFLCRGR | -1.2 ± 1.9
IFYFVL | 6.8 ± 0.074
KCLTLSCILDVCKNIVEEMI | 0.047 ± 0.46
VSGSVFTNMIANILSTSRYV | -0.179 ± 1.6
CLFNQKGMFTSGCKVYLTLV | -0.152 ± 0.27
GSIQDVIRLAIDVGRAALTE | 0.684 ± 0.55
VIVFCCSEDNRRGQLKV | -1.49 ± 0.84
